Where two headings read alike, the source gives them in different places. One block for each binder: values may come before it.
What was measured:
[1] = biological target: T1, human PD-L1 (full length, on cells) (human, UniProt Q9NZQ7 19-290); test: flow cytometry on MDA-MB-231 cells, PE anti-human IgG secondary, MFI (PE)
T1 construct: The entry holds the signal peptide; also called CD274; B7H1
Protocol: (§1) Cells (3-5×10⁴ cells/well) were incubated in polystyrene 96-well round-bottom plates (Greiner bio-one, cat. no. 650101) with serial dilutions of antibodies (range 0.0001 to 10 μg/mL in 5-fold dilution steps) in 50 μL PBS/0.1% BSA/0.02% azide (staining buffer) at 4° C. for 30 min.
(§2) After washing twice in staining buffer, cells were incubated in 50 μL secondary antibody at 4° C. for 30 min. As a secondary antibody, R-Phycoerythrin (PE)-conjugated goat-anti-human IgG F(ab′)₂ (Cat. no. 109-116-098, Jackson ImmunoResearch Laboratories, Inc., West Grove, Pa.) diluted 1:500 in staining buffer, was used for all experiments. Next, cells were washed twice in staining buffer, re-suspended in 20 μL staining buffer and analyzed on an iQue screener (Intellicyt Corporation, USA). Binding curves were analyzed using non-linear regression (sigmoidal dose-response with variable slope) using GraphPad Prism V75.04 software (GraphPad Software, San Diego, Calif., USA).

[2] = biological target: T2, PDLoneECDHisCtag (human, UniProt Q9NZQ7 19-238); test: BLI cross-block, second antibody on PDLoneECDHisCtag held by immobilised 476-N101Q-LC33S; bold = blocking
T2 construct: Expressed in HEK-293F cells; theoretical molecular weight 29 kDa; also called recombinant human PD-L1 ECD; human PD-L1 (BLI); not shown: C-terminal His-tag; C-tag
Protocol: (§3) Antibody cross-block testing was performed using biolayer interferometry (BLI) on an Octet HTX instrument (ForteBio). Antibodies (20 μg/ml in 10 mM sodium acetate buffer pH 6.0 (ForteBio)) were immobilized on Amine-Reactive 2nd Generation (AR2G) biosensors (ForteBio) according to the instructions of the manufacturer. After a baseline (50 s) in Sample Diluent (ForteBio), biosensors containing immobilized antibodies were loaded for 500 s with PDLoneECDHisCtag (100 nM or 2.7 μg/ml), after which the association response of a second antibody (10 μg/ml) was followed for 500 s. Biosensors were regenerated by using 3 times 5 s alternating exposures to 10 mM glycine pH 2.5 and Sample Diluent. The experiment was repeated with a new set of second antibodies starting from the baseline step. Each biosensor was used 6 times. The experiment was performed at 30° C. using a shaker speed of 1000 rpm. Data was analyzed using Data Analysis Software v9.0.0.12 (ForteBio). The Y-axis was aligned to the association step and Savitzky-Golay filtering was applied. The average buffer response was subtracted from the association response of the second antibody in order to correct for the dissociation of PDLoneECDHisCtag from the immobilized antibody. The corrected association responses were plotted in a matrix format.

[3] = biological target: T2, PDLoneECDHisCtag; test: BLI cross-block, second antibody on PDLoneECDHisCtag held by immobilised 547; plain = non-blocking
Protocol: as §3

[4] = biological target: T2, PDLoneECDHisCtag; test: BLI cross-block, second antibody on PDLoneECDHisCtag held by immobilised 632; bold = blocking
Protocol: as §3

[5] = biological target: T3, cynomolgus monkey PD-L1 (full length, on CHO cells) (cynomolgus monkey (Macaca fascicularis), UniProt G7PSE7 19-290); test: flow cytometry on CHO cells transfected with cynomolgus PD-L1, PE anti-human IgG secondary, MFI (PE)
T3 construct: whole, on cells; also called PDL1 Mf; cynomolgus PD-L1
Protocol: as §1, §2
(§4) Binding to CHO cells expressing cynomolgus PD-L1 was determined by flow cytometry using a method as described above.

[6] = biological target: T1, human PD-L1 (full length, on cells); test: flow cytometry on PC3 cells, PE anti-human IgG secondary, MFI (PE)
Protocol: as §1, §2

[7] = biological target: T1, human PD-L1 (full length, on cells); test: flow cytometry on MDA-MB-231 cells, PE anti-human IgG secondary, MFI (PE); remark: listed apart in the source
Protocol: as §1, §2

[8] = biological target: T2, PDLoneECDHisCtag; test: BLI cross-block, second antibody on PDLoneECDHisCtag held by immobilised 476-N101Q-LC33S; plain = non-blocking
Protocol: as §3

[9] = biological target: T2, PDLoneECDHisCtag; test: BLI cross-block, second antibody on PDLoneECDHisCtag held by immobilised 511-LC33S; plain = non-blocking
Protocol: as §3

[10] = biological target: T3, cynomolgus monkey PD-L1 (full length, …); test: flow cytometry on CHO cells transfected with cynomolgus PD-L1, PE anti-human IgG secondary, MFI (PE); remark: listed apart in the source
Protocol: as §1, §2, §4

[11] = biological target: T1, human PD-L1 (full length, on cells); test: cell-based or functional assay
[12] = biological target: T3, cynomolgus monkey PD-L1 (full length, …); test: flow cytometry on CHO cells transfected with cynomolgus PD-L1, PE anti-human IgG secondary, MFI (PE); remark: listed apart in the source
Protocol: as §1, §2, §4

[13] = biological target: T1, human PD-L1 (full length, on cells); test: cell-based or functional assay; remark: listed apart in the source

T3 sequence (G7PSE7 entry or part of it): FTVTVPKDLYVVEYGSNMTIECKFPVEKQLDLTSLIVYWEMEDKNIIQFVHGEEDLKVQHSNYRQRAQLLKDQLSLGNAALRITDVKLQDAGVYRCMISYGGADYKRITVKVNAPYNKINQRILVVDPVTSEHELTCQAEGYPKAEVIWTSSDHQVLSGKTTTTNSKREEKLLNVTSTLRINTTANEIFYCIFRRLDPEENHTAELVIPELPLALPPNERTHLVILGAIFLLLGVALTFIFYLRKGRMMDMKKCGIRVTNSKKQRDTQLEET
T2 sequence (Q9NZQ7 19-238, form in doubt): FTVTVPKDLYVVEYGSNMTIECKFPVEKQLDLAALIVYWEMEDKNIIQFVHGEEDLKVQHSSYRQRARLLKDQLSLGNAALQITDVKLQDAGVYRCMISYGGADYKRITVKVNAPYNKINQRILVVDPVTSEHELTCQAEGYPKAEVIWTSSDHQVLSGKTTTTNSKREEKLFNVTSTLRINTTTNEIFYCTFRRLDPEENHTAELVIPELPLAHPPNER
T1 sequence (Q9NZQ7 19-290 limits assumed): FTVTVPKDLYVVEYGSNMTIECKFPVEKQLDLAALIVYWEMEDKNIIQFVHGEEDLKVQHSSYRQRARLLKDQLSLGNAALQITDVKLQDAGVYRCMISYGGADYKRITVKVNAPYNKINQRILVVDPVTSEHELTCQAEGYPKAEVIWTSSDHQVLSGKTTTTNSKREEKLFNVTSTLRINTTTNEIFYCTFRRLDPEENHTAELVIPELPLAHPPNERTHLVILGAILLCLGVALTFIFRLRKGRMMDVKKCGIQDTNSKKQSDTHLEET

EC50 (read off the curve) [1]: ~0.08 µg/mL
association response of the second antibody [2]: 0 nm
association response of the second antibody [3]: 0.7 nm
association response of the second antibody [4]: 0 nm
EC50 (read off the curve) [5]: ~0.08 µg/mL
EC50 (read off the curve) [6]: ~0.03 µg/mL
B1: IgG1-511-LC33S-FEAR (antibody, V domains shown)
VH: QVQLVQSGSELKKPGASVMVSCKASGYTFTSYVMNWVRQAPGQGLEWMGWINSYTGNPTSAQGFTGRFVFSFDTSVNTAYLQISSLKAEDTAVYYCARGYCTSTSCYLDYWGQGTLVTVSS
VL: SYELTQPPSVSVSPGHTARITCSGDALPKKYASWFQQKSGQAPVLVIYEDSKRPSGIPERFSGSTSGTMATLTISGAQVEDETDYYCYSADTSGTHRVFGGGTKLTVLG

EC50 (read off the curve) [7]: ~0.03 µg/mL
association response of the second antibody [8]: 0.7 nm
association response of the second antibody [9]: 0.6 nm
EC50 (read off the curve) [10]: ~0.05 µg/mL
EC50 (read off the curve) [11]: ~0.02 µg/mL
B2: IgG1-547-FEAR (antibody, V domains shown)
VH: EVQLLEPGGGLVQPGGSLRLSCEASGSTFSTYAMSWVRQAPGKGLEWVSGFSGSGGFTFYADSVRGRFTISRDSSKNTLFLQMSSLRAEDTAVYYCAIPARGYNYGSFQHWGQGTLVTVSS
VL: SYVLTQPPSVSVAPGQTARITCGGNNIGSKSVHWYQQKPGQAPVLVVYDDNDRPSGLPERFSGSNSGNTATLTISRVEAGDEADYYCQVWDSSSDHVVFGGGTKLTVLG

EC50 (read off the curve) [12]: ~0.07 µg/mL
EC50 (read off the curve) [13]: ~0.03 µg/mL
B3: IgG1-338-FEAR (antibody, V domains shown)
VH: EVQVVESGGGLVQPGGSLRLSCAASGFTFSRFWMSWVRQAPGKGLEWVANIKQDGGEKYYVDSVKGRFTISRDNAKNSLYLQMNSLRGEDTAVYYCARDDNWNGHFDYWGQGTLVTVSS
VL: DIQMTQSPSTLSASVGDRVTITCRASQSISSWLAWYQQKPGKAPNLLIYKASSLESGVPSRFSGSGSGTEFTLTISSLQPDDFATYYCQQYYGSYITFGQGTRLEIKR
